# Source: patent US20100260773A1 (UCB, published 2010)
# “And” between values parts separate entries of the source, which are not always exact repeats. Equal entries are not always repeated.
# Experiments:
# [1] = molecular target: variant human IL-13 (R130Q) (human) (UniProt P35225); assay: cell-based or functional assay
# cynomolgus monkey IL-13 [2] = molecular target: T1, cynomolgus monkey IL-13 (cynomolgus monkey, UniProt Q0PW92 21-132); assay: cell-based or functional assay
# human IL-13 (wild type) [3] = molecular target: T2, human IL-13 (wild type) (human, UniProt P35225 35-146); assay: cell-based or functional assay
# T2 sequence (P35225 35-146 limits assumed): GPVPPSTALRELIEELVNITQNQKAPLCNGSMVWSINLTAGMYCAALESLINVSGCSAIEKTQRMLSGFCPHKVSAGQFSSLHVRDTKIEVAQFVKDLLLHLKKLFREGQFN
# cynomolgus monkey IL-13 [4] = molecular target: T1, cynomolgus monkey IL-13; assay: cell-based or functional assay; remark: listed apart in the source
# Rat IL-13 = molecular target: T3, Rat IL-13 (rat, UniProt P42203 19-131, limits assumed); assay: cell-based or functional assay
# T3 sequence (looked up): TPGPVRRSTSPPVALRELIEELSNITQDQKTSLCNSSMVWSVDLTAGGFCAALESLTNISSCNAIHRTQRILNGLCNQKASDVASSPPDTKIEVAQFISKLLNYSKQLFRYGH
# human IL-13 (wild type) [5] = molecular target: T2, human IL-13 (wild type); assay: Biacore 3000 SPR; purified Ab652 Fab captured by anti-human F(ab')2, hIL-13 as analyte; average of the table's runs
# Experimental: (§1) BIA (Biamolecular Interaction Analysis) was performed using a BIAcore 3000 (BIAcore AB). Affinipure F(ab′)₂ Fragment, goat anti-human IgG, F(ab′)₂ fragment specific (Jackson ImmunoResearch) was immobilised on a CM5 Sensor Chip via amine coupling chemistry to a capture level of ≈4000 response units (RUs). A blank surface was prepared in a similar way, omitting the F(ab′)₂ fragment from the procedure. HBS-EP buffer (10 mM HEPES pH 7.4, 0.15 M NaCl, 3 mM EDTA, 0.005% Surfactant P20, BIAcore AB) was used as the running buffer with a flow rate of 10 μl/min. A 10 μl injection of Ab652 Fab at ˜0.2 μg/mL was used for capture by the immobilised anti-human IgG-F(ab′)₂ to allow sufficient IL-13 binding but also to minimise mass transport limited binding effects. Human IL13 was titrated over the captured Ab652 at various concentrations (10 nM to 0.31 nM) at a flow rate of 30 μL/min The surface was regenerated by a 10 μl it injection of 40 mM HCl, followed by a 5 μl it injection of 5 mM NaOH at a flowrate of 10 μL/min
# (§2) Background subtraction binding curves were analysed using the BIAevaluation software (version 3.2) following standard procedures. Kinetic parameters were determined from the fitting algorithm.
# human IL-13 (wild type) [6] = molecular target: T2, human IL-13 (wild type); assay: Biacore 3000 SPR; Ab652 Fab captured by immobilised anti-human F(ab')2, hIL-13 titrated as analyte; average of 3 determinations
# Experimental: as §1, §2
# T1 sequence (Q0PW92 entry or part of it): as the sequence (P35225 35-146 limits assumed) above, with G1S, R10K, M42V, S67N, H83R, L100V counted along it
# Sequence of variant human IL-13 (R130Q) (human) (P35225 35-146, stated change not applied): as the sequence (P35225 35-146 limits assumed) above
binder,measurement,setting,value
"Ab652 (humanised anti-human IL-13 Fab, graft gL1gH2) (Fab, V domains shown, also called Ab652 Fab) VH: QVTLKESGPVLVKPTETLTLTCTVSGFSLTNYHVQWIRQPPGKALEWLGVMWSDGDTSFNSVLKSRLTISRDTSKSQVVLTMTNMDPVDTATYYCARDGTIAAMDYFDYWGQGTLVTVSS VL: DIQMTQSPSSLSASVGDRVTITCLASEDISNYLAWYQQKPGKAPKLLIYHTSRLQDGVPSRFSGSGSGTDFTLTISSLQPEDFATYYCQQGYRFPLTFGGGTKVEIKR","IC50 Ab652 Fab, HEK-Blue STAT-6 assay; IL-13 source natural human T cell, R130Q variant (250 pg/ml)",[1],1.66 ng/mL
same,"neutralisation potency against cynomolgus IL-13 relative to human IL-13 from rat fibroblasts, HEK Blue assay",cynomolgus monkey IL-13 [2],≤ 3 fold
same,"IC50 Ab652 Fab, HEK-Blue STAT-6 assay; IL-13 source E. coli-derived, wild type (250 pg/ml)",human IL-13 (wild type) [3],1.05 ng/mL
same,"IC50 Ab652 Fab, HEK-Blue STAT-6 assay; IL-13 source mammalian (rat fibroblasts), wild type (250 pg/ml)",human IL-13 (wild type) [3],0.57 ng/mL
same,"IC50 Ab652 Fab, HEK-Blue STAT-6 assay; IL-13 source natural human T cell, wild type (250 pg/ml)",human IL-13 (wild type) [3],2.12 ng/mL
same,"IC50 Ab652 Fab, HEK-Blue STAT-6 assay; nebulised Fab (IL-13 source of this row not given)",human IL-13 (wild type) [3],1.15 ng/mL
same,"IC50 Ab652 Fab, HEK-Blue STAT-6 assay; cynomolgus IL-13 on human receptor (1/4,000 = 250 pg/ml)",cynomolgus monkey IL-13 [4],1.61 ng/mL
same,"IC50 of Ab652, HEK Blue assay; recombinant mammalian cell derived rat IL-13 (transfected HEK293 supernatant), n = 1",Rat IL-13,953 ng/ml and 20000 pM
same,Kd,human IL-13 (wild type) [5],0.0134 nM and 0.013 nM
same,koff,human IL-13 (wild type) [5],6.27e-05 s⁻¹
same,kon,human IL-13 (wild type) [5],4.82e+06 M⁻¹ s⁻¹
same,Kd,human IL-13 (wild type) [6],0.0152 nM and 0.015 nM
same,koff,human IL-13 (wild type) [6],6.52e-05 s⁻¹
same,kon,human IL-13 (wild type) [6],4.51e+06 M⁻¹ s⁻¹
